# Laboratory results: the RNAGym collection of RNA variant scans (doi:10.7554/elife.80360)
# B1: HDV Ribozyme (parent)
# chain: GGCCGGCAUGGUCCCAGCCUCCUCGCUGGCGCCGGCUGGGCAACAUUCCGAGGGGACCGUCCCCUCGGUAAUGGCGAAUGGGACCCA
# Variants of: B1
# Experiment: self-cleavage, relative activity (ratio to wild type); higher = more cleavage; co-transcriptional
row,Variant,self-cleavage
1,U23C C44U,0.554
2,U23A G34C,0.339
3,U23A G34A,0.121
4,U23A G34U,0.149
5,U23C C57G,0.6
6,U23C C57U,0.743
7,U23G A71U,0.633
8,U23G A71C,0.256
9,U23G A71G,0.831
10,U23G A83G,0.237
11,C22U G59A,0.675
12,C22U G59U,0.858
13,U23A C61U,1.25
14,U23C C86G,0.95
15,U23G G40A,0.76
16,U23A G52C,0.946
17,U23A G52U,0.819
18,U23C G59U,0.975
19,U23C G59C,1.26
20,U23A C66A,0.883
21,U23A C66U,0.943
22,U23G A77U,0.237
23,U23G A77C,0.172
24,C22U G74A,0.113

row,Variant,self-cleavage
1,C22U G31C,0
2,C22U G31U,0.0817
3,C22U C36G,0.162
4,C22U C36U,0.254
5,U23A C49A,0.538
6,U23A C49G,1.16
7,C22U U79A,0.0923
8,U23G G34C,0.0415
9,U23C G55U,1.08
10,U23C G55C,0.914
11,U23A G80U,0.113
12,U23A G80A,0.18
13,U23C C66U,0.95
14,U23C C66G,0.923
15,U23C G52U,1.11
16,U23C G52A,0.906
17,U23A C24G,0.113
18,U23A U69C,0.942
19,U23A U69A,1.01
20,U23C G74C,0.277
21,U23C G74A,0.217
22,U23A G39A,0.408
23,C22U U65A,0.831
24,C22U U65G,0.845

row,Variant,self-cleavage
1,C22U A87G,0.737
2,C22U A87C,0.665
3,U23G A87G,0.645
4,U23C C84G,0.739
5,U23C G39U,0.716
6,U23C G39C,0.244
7,U23A C86U,0.872
8,U23A C86G,0.85
9,U23G A45U,0.312
10,U23A C85A,0.68
11,U23A C85G,0.942
12,U23G C57A,0.656
13,U23G C57U,0.785
14,U23G C57G,0.831
15,U23C U27A,0.898
16,U23C C61U,0.975
17,U23C C61G,0.945
18,U23A A71U,0.831
19,U23A A71G,0.8
20,U23A U37G,0.415
21,U23C C64G,0.76
22,U23C C64A,0.743
23,U23A C44G,0.594
24,U23A C44A,0.612

row,Variant,self-cleavage
1,U23A C44U,0.566
2,C22U G54C,0.641
3,C22U G54A,0.709
4,U23G C63G,0.688
5,U23C A87U,0.953
6,U23A G25C,0.208
7,U23C C63U,0.984
8,U23C C63A,0.86
9,U23A C62A,0.872
10,U23A U65G,1.18
11,U23A U65C,1.09
12,C22U C24G,0.0563
13,U23A G40C,0.181
14,U23A C48U,1.21
15,U23A C48G,0.898
16,U23A G31C,0.44
17,U23A G31U,0.271
18,U23G G31A,0.175
19,U23G G31U,0.0639
20,U23G C85A,0.787
21,C22U G52C,0.635
22,C22U G50U,0.521
23,U23C U72A,0.776
24,U23C U72G,0.532

row,Variant,self-cleavage
1,U23C G50U,0.789
2,U23C G50C,0.864
3,U23C G50A,0.95
4,U23A G50A,1.06
5,U23A G50C,0.831
6,U23C C24A,0.287
7,U23G A43C,0.131
8,U23G A43G,0.138
9,U23A C32A,0.251
10,U23A G76A,0.978
11,U23C G76C,1.05
12,U23G A42U,0.0997
13,U23G A42G,0.0665
14,C22U G34A,0.0468
15,C22U G34C,0.0852
16,U23G C61A,0.743
17,U23G C61U,0.923
18,U23C G38C,0.277
19,U23C G38A,0.17
20,C22U U37A,0.166
21,C22U U37G,0.101
22,U23A G29C,0.0923
23,U23A G29A,0.0804
24,U23A G29U,0

row,Variant,self-cleavage
1,C22U C48A,0.815
2,C22U C33A,0.0692
3,C22U G55A,0.717
4,U23A G82A,0.266
5,U23A G82U,0.425
6,U23A G82C,0.326
7,C22U G82A,0.101
8,U23A G54U,0.937
9,U23C C36A,0.172
10,U23C C36G,0.125
11,C22U A83U,0.199
12,C22U A83G,0.12
13,U23C A71U,0.808
14,U23C A71C,0.415
15,U23C C49U,0.852
16,U23C C49G,0.655
17,U23C C49A,0.987
18,U23G C33G,0.161
19,U23A U27A,0.675
20,U23A A83U,0.449
21,U23A A83G,0.767
22,U23A A56C,0.929
23,C22U C75U,0.214
24,C22U C75A,0.0282

row,Variant,self-cleavage
1,U23C G40A,0.8
2,U23C G40C,0.0852
3,U23G C41A,0.465
4,U23A U47C,1.14
5,U23G C86A,0.607
6,U23G C86G,0.525
7,U23G C86U,0.877
8,U23A C36A,0.177
9,U23A A51C,0.731
10,U23A A51G,1.01
11,C22U G81U,0.04
12,C22U G81C,0.237
13,U23A U46C,0.929
14,U23A U46G,1.06
15,U23A U46A,0.623
16,U23G A56C,0.978
17,U23G A56G,0.787
18,U23A C64U,0.935
19,U23A C64G,1.03
20,U23G C48A,0.807
21,U23C G67U,0.743
22,U23G C66U,0.65
23,U23G C36A,0.203
24,C22U A78U,0.197

row,Variant,self-cleavage
1,U23G C44A,0.0791
2,U23G G25A,0.142
3,C22U C62A,0.623
4,C22U C62G,0.431
5,C22U C26U,0.847
6,C22U C26G,0.492
7,U23C G34U,0.145
8,U23C G53C,0.927
9,C22U G29C,0.0405
10,C22U G25C,0.0852
11,U23A C41U,1.14
12,C22U C32G,0.0941
13,C22U C66A,0.758
14,U23C C41U,0.959
15,U23C C41A,0.789
16,U23G C62A,0.712
17,U23G C62U,0.403
18,C22U G68U,0.572
19,C22U G68C,0.345
20,C22U C86A,0.779
21,C22U G39A,0.185
22,C22U U27G,0.554
23,U23A A45U,0.727
24,U23A A45G,1.15

row,Variant,self-cleavage
1,C22U U47C,0.424
2,C22U U47A,0.584
3,U23C U79C,0.232
4,U23C U79A,0.554
5,U23A A78U,0.256
6,C22U C64U,0.892
7,U23C A70G,0.95
8,U23C A70C,0.939
9,U23C A42C,0.161
10,U23C A42U,0.415
11,U23C C32G,0.0415
12,U23C A56G,0.87
13,U23C A56C,0.942
14,U23A C84G,0.601
15,U23A C84U,0.762
16,U23A G74A,0.465
17,U23A U79A,0.646
18,U23A U79C,0.369
19,C22U C44U,0.249
20,C22U G35C,0
21,C22U G35A,0.109
22,C22U G35U,0.0511
23,U23C A78G,0.739
24,U23C A78U,0.151

row,Variant,self-cleavage
1,U23A C58G,1.34
2,U23A C58U,1.25
3,U23A C30U,0.554
4,U23A C30A,0.466
5,U23A U72A,0.773
6,U23A U72C,0.332
7,U23C C85A,1.01
8,U23C C33A,0.0378
9,U23C C33G,0
10,U23C A77C,0.256
11,U23C G25U,0.158
12,U23C G25A,0.101
13,U23C G25C,0.138
14,U23G A51U,0.705
15,U23G A51C,0.63
16,U23G A51G,0.8
17,C22U U23G,0.246
18,C22U U23A,0.845
19,U23C C62G,0.987
20,U23C C62U,1.03
21,C22U U46A,0.295
22,C22U U46C,0.268
23,U23A G68C,0.831
24,U23A G68U,1.09

row,Variant,self-cleavage
1,U23A G68A,0.906
2,U23G C30U,0.203
3,U23G C30A,0.145
4,U23G C30G,0.0536
5,U23C U46A,0.538
6,U23C U46C,0.745
7,U23C U46G,0.739
8,U23A C63G,0.877
9,U23A C63A,0.812
10,C22U C85U,0.577
11,U23C U65A,1.09
12,U23C U65C,1.02
13,U23C U65G,0.95
14,U23G C64A,0.89
15,U23G C64U,0.61
16,C22U C57U,0.817
17,U23G G35U,0.283
18,U23G G35C,0.0639
19,U23G G35A,0.324
20,U23A A43U,0.481
21,U23A A43C,0.312
22,C22U C61U,0.62
23,C22U C61A,0.641
24,U23C G54U,1.01

row,Variant,self-cleavage
1,U23C G54A,0.888
2,C22U C63A,0.697
3,U23C U69C,0.886
4,U23C U37G,0.266
5,U23A A42G,0.499
6,U23G C26U,0.997
7,U23A G38C,0.192
8,U23A G38U,0.208
9,U23A G38A,0.0963
10,U23C C58G,0.673
11,U23C C58U,0.928
12,U23C C58A,1.18
13,U23A G53C,1.12
14,U23A G53U,0.923
15,U23A G53A,0.95
16,U23C G81U,0.499
17,U23G C49U,0.867
18,U23G C49A,0.831
19,U23G G38U,0.0583
20,U23G G38C,0.095
21,U23G G38A,0.0923
22,U23G G39U,0.405
23,U23G C84G,0.388
24,U23G C84U,0.342

row,Variant,self-cleavage
1,U23C C26U,1.26
2,U23C C26A,1.11
3,U23A A70G,0.931
4,U23A G28U,0.116
5,U23C A43U,0.298
6,U23C G28U,0.249
7,U23C G28C,0.0639
8,U23C G29A,0.0665
9,U23C G29U,0.142
10,U23C G31C,0.141
11,U23A C26G,0.978
12,U23A G55A,0.969
13,U23A G55C,1.12
14,U23C G82A,0.314
15,U23C G82U,0.312
16,C22U U69A,0.554
17,C22U U69G,0.759
18,C22U U69C,0.914
19,C22U C58G,0.511
20,U23G A70G,0.59
21,U23C C75A,0.166
22,U23C C75U,0.0739
23,U23A C33G,0.35
24,C22U C30G,0.126

row,Variant,self-cleavage
1,U23C C48A,1.12
2,U23C C48G,1.05
3,U23C C48U,0.806
4,C22U C41G,0.554
5,C22U C41A,0.674
6,C22U C41U,0.656
7,U23C A51C,1.08
8,U23G A78C,0.106
9,U23C A83C,0.302
10,U23C A83U,0.767
11,U23C A83G,0.742
12,C22U G38C,0.122
13,C22U G38A,0.931
14,U23C U47A,1.03
15,U23A G67C,1.22
16,U23A G67U,0.849
17,U23A G67A,0.782
18,U23A A77G,1.03
19,C22U C84U,0.29
20,U23A G73C,0.554
21,U23A G73A,0.575
22,U23G G29C,0.196
